{"source": "patent US20250332297A1", "about": "“DLL3-SPECIFIC BINDING CONSTRUCTS AND THEIR USE IN RADIOTHERAPY” (MOLECULAR PARTNERS AG, priority 2024, published 2025)", "key": {"human serum albumin [1]": {"molecular_target": "T1, human serum albumin (human, UniProt P02768 25-609)", "T1 construct": "also called HSA", "assay": "SPR (ProteOn), HSA on chip, DARPin as analyte, 1:1 Langmuir fit", "method": "(§1) SPR multi-trace analyses were performed similarly as described in previous Examples.\n(§2) All analytes (3-fold dilution ranging from 600-7.41 nM) were injected in succession for 240 s and dissociation was recorded for 600 s using a constant flow of 25 μl/min (HSA) or 100 μl/min (MSA) (25 μl/min)."}, "[2]": {"molecular_target": "T2, Dog DLL3-NTD (truncated dog DLL3, N-Terminal Domain, residues 27-189, C-terminal 6xHis and Avi-tag) (dog, UniProt A0A8I3MXZ5 27-188, biotinylated at the Avi-tag)", "T2 construct": "also called dog NTD; not shown: C-terminal 6xHis and Avi-tag", "T2 sequence": "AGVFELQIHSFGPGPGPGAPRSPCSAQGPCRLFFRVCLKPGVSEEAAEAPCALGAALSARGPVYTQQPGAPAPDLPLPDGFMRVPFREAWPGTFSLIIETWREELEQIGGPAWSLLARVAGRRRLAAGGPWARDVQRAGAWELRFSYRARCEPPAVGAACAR", "assay": "SPR (ProteOn)"}, "[3]": {"molecular_target": "T3, Cyno DLL3-ECD (extracellular domain of cynomolgus macaque DLL3, residues 27 to 466, Avi-tag, 3C site, Fc knob … (cynomolgus macaque, UniProt A0A2K5WSR1 27-464, biotinylated at the Avi-tag (Example 11)))", "T3 construct": "range 27-466; also called cyno ECD; cynomolgus monkey DLL3; not shown: Avi-tag, 3C protease recognition site and Fc knob into hole", "T3 sequence": "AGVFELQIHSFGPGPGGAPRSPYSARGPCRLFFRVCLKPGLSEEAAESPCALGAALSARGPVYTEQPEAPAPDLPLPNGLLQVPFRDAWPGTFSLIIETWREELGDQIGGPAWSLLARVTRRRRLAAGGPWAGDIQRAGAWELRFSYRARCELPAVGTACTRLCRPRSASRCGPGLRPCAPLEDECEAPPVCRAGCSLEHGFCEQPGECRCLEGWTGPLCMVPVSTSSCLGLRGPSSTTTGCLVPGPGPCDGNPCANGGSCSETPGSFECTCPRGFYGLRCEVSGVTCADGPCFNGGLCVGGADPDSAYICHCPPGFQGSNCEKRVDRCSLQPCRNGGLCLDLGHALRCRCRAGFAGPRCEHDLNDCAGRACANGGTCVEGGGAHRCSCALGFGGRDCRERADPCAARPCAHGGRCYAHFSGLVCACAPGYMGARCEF", "assay": "SPR (ProteOn)"}, "[4]": {"molecular_target": "T4, Human DLL3-ECD (recombinant extracellular domain of human DLL3, Examples 11, 17 and 19) (human, UniProt Q9NYJ7 27-466, biotinylated at the Avi-tag where immobilised (Examples 11 and 19))", "T4 construct": "also called hDLL3-ECD; human ECD; not shown: Avi-tag and Fc knob into hole (order depends on the format)", "T4 sequence": "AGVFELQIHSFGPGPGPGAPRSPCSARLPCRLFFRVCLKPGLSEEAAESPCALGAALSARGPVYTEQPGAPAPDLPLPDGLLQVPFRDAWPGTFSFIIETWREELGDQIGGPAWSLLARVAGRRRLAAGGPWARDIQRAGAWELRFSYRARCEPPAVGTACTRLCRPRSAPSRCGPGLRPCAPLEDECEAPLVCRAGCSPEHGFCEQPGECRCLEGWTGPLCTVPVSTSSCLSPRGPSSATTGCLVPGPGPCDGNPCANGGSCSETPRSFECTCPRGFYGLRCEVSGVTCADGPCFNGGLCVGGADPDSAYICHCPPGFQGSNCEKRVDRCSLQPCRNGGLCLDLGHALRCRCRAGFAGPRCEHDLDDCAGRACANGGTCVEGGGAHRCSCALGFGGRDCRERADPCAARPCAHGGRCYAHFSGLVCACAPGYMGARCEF", "assay": "SPR (ProteOn), biotinylated human DLL3-ECD on chip, DARPin as analyte, 1:1 Langmuir fit", "method": "(§3) The data were generated using BioRad ProteOn instrument in SPR running buffer (PBS, pH 7.4 containing 0.005% Tween 20©). […] The chip was coated with biotinylated target to reach a signal intensity of 1516 RU (human ECD), 257 RU (human NTD), 1500 RU (cyno ECD) and 228 RU (dog NTD). […] Each injection was followed by a regeneration step with 16 mM H₃PO₄ for 18 s. […] The obtained SPR traces were used to determine on-rate and off-rate interaction parameters."}, "[5]": {"molecular_target": "T3, Cyno DLL3-ECD (extracellular domain of …)", "assay": "SPR (ProteOn), biotinylated cyno DLL3-ECD on chip, DARPin as analyte, 1:1 Langmuir fit", "method": "as §3"}, "[6]": {"molecular_target": "T4, Human DLL3-ECD (recombinant …)", "assay": "SPR (ProteOn), biotinylated human DLL3-ECD on chip, DARPin as analyte, 1:1 Langmuir fit (same values as Table 14)", "method": "as §3"}, "[7]": {"molecular_target": "T5, Human DLL3-NTD (truncated human DLL3, N-Terminal Domain, residues 27-189, C-terminal 6xHis and Avi-tag) (human, UniProt Q9NYJ7 27-189)", "T5 construct": "also called hDLL3-NTD; human NTD; not shown: C-terminal 6xHis and Avi-tag", "T5 sequence": "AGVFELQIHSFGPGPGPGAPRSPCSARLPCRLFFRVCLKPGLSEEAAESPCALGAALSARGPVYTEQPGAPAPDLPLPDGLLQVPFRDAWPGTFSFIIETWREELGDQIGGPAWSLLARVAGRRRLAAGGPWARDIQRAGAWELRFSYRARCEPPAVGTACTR", "assay": "SPR (ProteOn), biotinylated human DLL3-NTD on chip, DARPin as analyte, 1:1 Langmuir fit", "method": "as §3"}, "mouse serum albumin [8]": {"molecular_target": "T6, mouse serum albumin (mouse, UniProt P07724 25-608)", "T6 construct": "also called MSA", "T6 sequence (P07724 25-608 limits assumed)": "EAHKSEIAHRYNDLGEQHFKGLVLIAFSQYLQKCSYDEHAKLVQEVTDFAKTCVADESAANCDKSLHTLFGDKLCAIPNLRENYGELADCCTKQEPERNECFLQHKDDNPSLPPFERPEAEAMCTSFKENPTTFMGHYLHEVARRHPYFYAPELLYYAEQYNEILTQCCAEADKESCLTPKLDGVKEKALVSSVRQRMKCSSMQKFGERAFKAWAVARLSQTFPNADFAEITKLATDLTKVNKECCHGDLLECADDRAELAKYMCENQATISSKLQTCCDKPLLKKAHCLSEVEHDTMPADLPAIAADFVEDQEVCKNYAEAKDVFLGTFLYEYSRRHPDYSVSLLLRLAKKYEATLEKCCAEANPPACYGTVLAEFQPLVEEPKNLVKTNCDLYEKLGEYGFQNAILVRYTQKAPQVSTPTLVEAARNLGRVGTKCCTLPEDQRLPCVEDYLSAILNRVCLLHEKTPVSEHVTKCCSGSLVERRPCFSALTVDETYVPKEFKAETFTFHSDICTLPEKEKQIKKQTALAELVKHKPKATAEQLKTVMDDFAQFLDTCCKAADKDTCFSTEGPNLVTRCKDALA", "assay": "SPR (ProteOn), MSA on chip, DARPin as analyte, 1:1 Langmuir fit", "method": "as §1, §2"}, "[9]": {"molecular_target": "T2, Dog DLL3-NTD (truncated dog DLL3, …)", "assay": "SPR (ProteOn), biotinylated dog DLL3-NTD on chip, DARPin as analyte, 1:1 Langmuir fit", "method": "as §3"}, "human serum albumin [10]": {"molecular_target": "T1, human serum albumin", "assay": "SPR (ProteOn), HSA on chip"}, "mouse serum albumin [11]": {"molecular_target": "T6, mouse serum albumin", "assay": "SPR (ProteOn), MSA on chip, IAM-capped 2D DARPin as analyte, 1:1 Langmuir fit"}, "human serum albumin [12]": {"molecular_target": "T1, human serum albumin", "assay": "SPR (ProteOn), HSA on chip, IAM-capped 2D DARPin as analyte, 1:1 Langmuir fit"}}}
{"binder": "MAM279 (SEQ ID NO: 11) with a Glycine-Serine (GS) at its N-terminal end and an N-terminal His-tag (SEQ ID NO: 19) (designed binder, also called unconjugated MAM279) MRGSHHHHHHGSDLGKKLLEAARAGQDDEVRELLKAGADVNAKDYFSHTPLHLAARNGHLKIVEVLLKAGADVNAKDFAGKTPLHLAADAGHLEIVEVLLKAGADVNAQDIFGKTPADIAADAGHEDIAEVLQKAAGSPTPTPTTPTPTPTTPTPTPTGSDLGKKLLAAAAQGQDDEVRELLKAGANVNAKDLFGYTPLHLAAWRGHLEIVEVLLKAGADVNAKDAAGETPLHLAAWFGHLEIVEVLLKAGADVNAQDLQGKTPADLAAKEGHEDIAEVLQKAA", "values": [{"measurement": "Kd", "setting": "human serum albumin [1]", "result": 75.5, "unit": "nM"}, {"measurement": "koff", "setting": "human serum albumin [1]", "result": 0.0216, "unit": "s⁻¹"}, {"measurement": "kon", "setting": "human serum albumin [1]", "result": 286000, "unit": "M⁻¹ s⁻¹"}, {"measurement": "fold lower affinity than to human DLL3-ECD", "setting": "[2]", "result": "~10", "unit": "fold"}, {"measurement": "fold lower affinity than to human DLL3-ECD", "setting": "[3]", "result": "~100", "unit": "fold"}, {"measurement": "Kd", "setting": "[4]", "result": 0.174, "unit": "nM"}, {"measurement": "koff", "setting": "[4]", "result": "1.45e-05", "unit": "s⁻¹"}, {"measurement": "kon", "setting": "[4]", "result": 83500, "unit": "M⁻¹ s⁻¹"}, {"measurement": "Kd", "setting": "[5]", "result": 22, "unit": "nM"}, {"measurement": "koff", "setting": "[5]", "result": 0.000978, "unit": "s⁻¹"}, {"measurement": "kon", "setting": "[5]", "result": 44500, "unit": "M⁻¹ s⁻¹"}, {"measurement": "Kd", "setting": "[6]", "result": 0.174, "unit": "nM"}, {"measurement": "koff", "setting": "[6]", "result": "1.45e-05", "unit": "s⁻¹"}, {"measurement": "kon", "setting": "[6]", "result": 83500, "unit": "M⁻¹ s⁻¹"}, {"measurement": "Kd", "setting": "[7]", "result": 0.263, "unit": "nM"}, {"measurement": "koff", "setting": "[7]", "result": "1.54e-05", "unit": "s⁻¹"}, {"measurement": "kon", "setting": "[7]", "result": 58700, "unit": "M⁻¹ s⁻¹"}, {"measurement": "Kd", "setting": "mouse serum albumin [8]", "result": 144, "unit": "nM"}, {"measurement": "koff", "setting": "mouse serum albumin [8]", "result": 0.0383, "unit": "s⁻¹"}, {"measurement": "kon", "setting": "mouse serum albumin [8]", "result": 267000, "unit": "M⁻¹ s⁻¹"}, {"measurement": "Kd", "setting": "[9]", "result": 1.2, "unit": "nM"}, {"measurement": "koff", "setting": "[9]", "result": "5.58e-05", "unit": "s⁻¹"}, {"measurement": "kon", "setting": "[9]", "result": 46400, "unit": "M⁻¹ s⁻¹"}]}
{"binder": "High HSA affinity 2D DARPin (SEQ ID NO: 17), Cysteine capped with iodoacetamide (designed binder, free C-terminal Cysteine capped with Iodoacetamide (IAM), MAM160 with GS at the N-terminus and a Cysteine-containing tag at the C-terminus, without His-tag; also called GS-MAM160-tag) GSDLGKKLLEAARAGQDDEVRELLKAGADVNAKDYFSHTPLHLAARNGHLKIVEVLLKAGADVNAKDFAGKTPLHLAADAGHLEIVEVLLKAGADVNAQDIFGKTPADIAADAGHEDIAEVLQKAAGSPTPTPTTPTPTPTTPTPTPTGSDLGTKLLSAAADGQDDEVRELLQAGADVNAKDLFGYTPLHLAAWRGHLEIVEVLLEAGADVNAKDAAGLTPLHLAAWFGHLEIVEVLLEAGADVNAQDVQGVTPADLAAKEGHEDIAEVLQQAAGSGSC", "values": [{"measurement": "fold higher binding affinity than the Low HSA affinity 2D DARPin", "setting": "human serum albumin [10]", "result": "~10", "unit": "fold"}, {"measurement": "Kd", "setting": "mouse serum albumin [11]", "result": 259, "unit": "nM"}, {"measurement": "koff", "setting": "mouse serum albumin [11]", "result": 0.0345, "unit": "s⁻¹"}, {"measurement": "kon", "setting": "mouse serum albumin [11]", "result": 133000, "unit": "M⁻¹ s⁻¹"}, {"measurement": "Kd", "setting": "human serum albumin [12]", "result": 295, "unit": "nM"}, {"measurement": "koff", "setting": "human serum albumin [12]", "result": 0.0311, "unit": "s⁻¹"}, {"measurement": "kon", "setting": "human serum albumin [12]", "result": 105000, "unit": "M⁻¹ s⁻¹"}]}
